Laboratory results from patent US20190241662A1 (ADAGENE, published 2019).

Columns and labels:
[1] = target: T1, recombinant human CTLA4-Fc (human, UniProt P16410 36-162); assay: BLI Octet, CTLA4-Fc on AHC sensor, Fab 10 ug/mL
T1 construct: also called human CTLA4 fused with human FC fragment; CTLA4-Fc (Sino Biological, 11159-H03H)
T1 sequence (looked up): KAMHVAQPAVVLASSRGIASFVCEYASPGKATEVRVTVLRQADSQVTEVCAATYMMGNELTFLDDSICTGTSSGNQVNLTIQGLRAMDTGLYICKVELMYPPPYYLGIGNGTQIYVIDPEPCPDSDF
Experimental: Proprietary phagemid libraries (see PCT application number PCT/CN2017/098333, incorporated herein by reference in its entirety; see also PCT application number PCT/CN2017/098299, incorporated herein by reference in its entirety) were employed to pan against human CTLA4 antigens. A total of 3-5 rounds of panning were conducted. After the final round of panning, single-colony supernatant ELISA was performed to identify the primary hits that specifically recognized human CTLA4 (see e.g., UniProt Accession Number P16410). The primary hits were defined as those whose ELISA signals were at least twice that of background. The hits were then sequenced, and the unique clones were expressed in E. coli and purified. Their affinities against human CTLA4 were measured by ForteBio Octet RED96 Systems. […] The acquired ForteBio data were processed with Data Acquisition software 7.1, and kinetic data were fitted to a 1:1 Langmuir binding model.

[2] = target: T2, full-length human CTLA4 expressed on cells (human, UniProt P16410 36-223); assay: flow cytometry blocking: HEK293F cells with human CTLA4, 100 nM antibody, then 100 nM CD80-Fc-Bio (blocked ligand); PBSA panel: Mean 157692, 26.3%
T2 construct: whole, on cells; also called HEK293F/hCTLA-4 cells; HEK293F/hCTLA4 cells
T2 sequence (looked up): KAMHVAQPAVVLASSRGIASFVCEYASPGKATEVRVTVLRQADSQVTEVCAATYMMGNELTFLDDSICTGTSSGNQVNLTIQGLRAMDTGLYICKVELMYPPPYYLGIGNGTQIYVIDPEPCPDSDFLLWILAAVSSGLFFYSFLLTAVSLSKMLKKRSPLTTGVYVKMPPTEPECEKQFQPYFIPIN
Experimental: Antibodies were also tested for their ability to block binding of CTLA4 to its cognate ligands CD80 and CD86 by flow cytometry. The plasmid encoding full-length human CTLA4 was transiently expressed in HEK293F cells. Cells were washed with staining buffer (PBSA buffer including 1.76 mM KH₂PO₄, 10.14 mM Na₂HPO₄.12H₂O, 2.68 mM KCl, 136.89 mM NaCl and 1% BSA), and resuspended in staining buffer containing 100 nM test antibodies. […] Cells were washed once, and analyzed by CytoFlex flow cytometry.

[3] = target: T3, recombinant human CTLA4 fused with human Fc and His tag (human, UniProt P16410 36-162, limits assumed); assay: competition ELISA: plate-bound human CTLA4-Fc-His, biotinylated CD80 as blocked ligand
T3 construct: Coated in the CD80 ELISA, biotinylated and in solution in the CD86 ELISA; also called biotinylated human CTLA4 fused with human FC and His tag
T3 sequence (looked up): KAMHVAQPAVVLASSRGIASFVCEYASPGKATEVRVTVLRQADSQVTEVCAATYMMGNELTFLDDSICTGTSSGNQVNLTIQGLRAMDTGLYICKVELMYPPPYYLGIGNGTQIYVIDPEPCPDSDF
Experimental: Antibodies were then tested for their ability to block binding of CTLA4 to its cognate ligands CD80 and CD86 by ELISA. […] Plates were blocked with PBS supplemented with 2% (w/v) skim milk at 37° C. for 1 hour. […] Plates were washed four times, and 100 μL HRP-neutravidin (1:1000) was added to each well and incubated at 37° C. for 1 hour. Plates were washed as previously described, and 50 μL TMB substrate solution was added and incubated at room temperature for 5 minutes before the reaction was stopped by 50 μL sulfate acid (2M).

[4] = target: T2, full-length human CTLA4 expressed on …; assay: flow cytometry, transfected HEK293F cells, antibody concentration not printed [Cont.]
Experimental: (§1) The affinities of the antibodies were also assessed against human and mouse CTLA4 transiently expressed on the surface of HEK293F cells (FIG. 2). Briefly, HEK293F cells were transfected with a plasmid expressing full-length human, monkey or mouse CTLA4 from a bicistronic IRES vector also encoding EGFP, and EGFP expression was used to identify the transfected cells. After 48 hours, the mammalian cell suspension (2×10⁵/well) was transferred to an Eppendorf tube, centrifuged, the supernatant was discarded, the cells were resuspended with 1 mL PBSA (to a density is 4×10⁶ cells/mL), and added to a 96 well plate. […] The cells were then washed once prior to analysis by flow cytometry (Beckman® CytoFlex).

[5] = target: T4, full-length mouse CTLA4 expressed on HEK293F cells (mouse, UniProt P09793 36-223); assay: as above
T4 construct: whole, on cells
Experimental: as §1

[6] = target: T1, recombinant human CTLA4-Fc; assay: ELISA, coated human CTLA4-Fc (as in Example 8)
Experimental: Plates were blocked with PBS supplemented with 3% non-fat milk at 37° C. for 1 hour. After washing, 100 μL of 3-fold serial dilutions of antibodies were added to each well. After incubation at 37° C. for 1 hour, plates were washed four times, and 100 μL HRP conjugated anti-human IgG (Fab specific) (1:6000 dilution) was added to each well. Plates were incubated at 37° C. for 1 hour, washed four times, and then 50 μL TMB substrate solution was added to each well, and the plate was incubated at room temperature. […] The EC₅₀ was evaluated by fitting the ELISA data using the asymmetrical sigmoidal (five-parameter logistic equation) model of GraphPad Prism 6 software.

[7] = target: T5, monkey CTLA4 (SPR analyte, construct not stated) (monkey, UniProt G7PL88 36-161); assay: SPR (Biacore T200), IgG captured by anti-human Fc
T5 sequence: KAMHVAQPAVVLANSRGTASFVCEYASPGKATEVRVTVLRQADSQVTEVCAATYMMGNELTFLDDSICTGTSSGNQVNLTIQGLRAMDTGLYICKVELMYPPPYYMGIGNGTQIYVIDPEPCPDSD
Description: (§2) Binding affinity and kinetics of antibodies against human, monkey and mouse CTLA4 were examined (Table 4) by surface plasmon resonance (SPR) analysis using a Biacore™ T200 instrument (Biacore AB, Uppsala, Sweden) according to the manufacturer's guidelines. Anti-Human IgG (Fc) antibody from Human Antibody Capture Kit (GE BR-1008-39) was immobilized on CM5 chips by coupling of its amine groups onto carboxylated surfaces of sensor chips according to the instructions of an Amine Coupling kit (GE Biacore #BR-1000-50). […] The association and dissociation curves were fitted to a 1:1 Langmuir binding model using Biacore T200 Evaluation Software (Biacore AB) according to the manufacturer's guidelines.

[8] = target: T6, recombinant human CTLA4 protein (construct not stated) (human, UniProt P16410 36-162, limits assumed); assay: SPR (Biacore T200), IgG captured by anti-human Fc
T6 construct: also called biotinylated human CTLA4; human recombinant CTLA4 proteins
T6 sequence (looked up): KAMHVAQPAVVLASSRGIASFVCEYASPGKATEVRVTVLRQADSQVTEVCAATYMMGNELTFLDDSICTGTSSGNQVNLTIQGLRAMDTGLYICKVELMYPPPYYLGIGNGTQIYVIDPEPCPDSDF
Description: as §2

[9] = target: mouse CTLA4 (SPR analyte, construct not stated) (mouse, UniProt P09793 36-162, limits assumed); assay: SPR (Biacore T200), IgG captured by anti-human Fc
Description: as §2

B1: B15756 (Fab, V domains shown)
VH: EVQLVESGGGLVQPGGSLRLSCAASGFSLSTGGVAVSWIRQAPGKGLEWIGEIYHSGSTYYSPSLKSRVTISRDNSKNTLYLQLNSLRAEDTAVYYCARRIATATYFDYWGQGTLVTVSS
VL: DIQLTQSPSSLSASVGDRVTITCRASQTVFSRYLAWYQQKPGKAPKLLIYDASNRATGIPSRFSGSGSGTDFTLTISSLQPEDFATYYCQQSYYWPPWTFGQGTKVEIKR
notes: Fab from E. coli; also called Fab hit of TY21591
Kd [1]: 0.0555 µM | koff [1]: 0.00663 s⁻¹ | kon [1]: 120000 M⁻¹ s⁻¹

B2: B15722 (Fab, V domains shown)
VH: EVQLVESGGGLVQPGGSLRLSCAASGFTFSDYGIHWVRQAPGKGLEWIGEIYHSGSTYYSPSLKSRVTISRDNSKNTLYLQLNSLRAEDTAVYYCARDVAPGSSGYYDGFDFWGQGTLVTVSS
VL: DIQLTQSPSSLSASVGDRVTITCRASQGIGSSLAWYQQKPGKAPKLLIYDASNRATGIPSRFSGSGSGTDFTLTISSLQPEDFATYYCQQYDQWPPWTFGQGTKVEIKR
notes: Fab from E. coli; also called Fab hit of TY21587
Kd [1]: 0.0612 µM | koff [1]: 0.00434 s⁻¹ | kon [1]: 70900 M⁻¹ s⁻¹

B3: TY21588 (antibody, V domains shown)
VH: EVQLVESGGGLVQPGGSLRLSCAASGYSISSGYHWDWIRQAPGKGLEWVSGISGYGGSTYYADSVKGRFTISRDNSKNTLYLQLNSLRAEDTAVYYCARHSYYGSGNFDYWGQGTLVTVSS
VL: DIQLTQSPSSLSASVGDRVTITCRASESVDFFGKSFLHWYQQKPGKAPKLLIYDASNLETGVPSRFSGSGSGTDFTLTISSLQPEDFATYYCQQSYSWPPTFGQGTKVEIKR
notes: human IgG1 (hIgG1) from Fab hit B15732
% of cells in upper right quadrant (CD80-positive) in the presence of the antibody [2]: 19.4% | Mean of the CD80 binding signal in the presence of the antibody [2]: 8180 | IC50 (read off the curve) [3]: ~0.001 µM | % of cells in upper right quadrant (Q2) [4]: 27% | % of cells in upper right quadrant (Q2) [5]: 32.1%

B4: B15717 (Fab, V domains shown)
VH: EVQLVESGGGLVQPGGSLRLSCAASGYTFSGYGIHWVRQAPGKGLEWIGEIYHSGSTYYSPSLKSRVTISRDNSKNTLYLQLNSLRAEDTAVYYCARRIDAFDIWGQGTLVTVSS
VL: DIQLTQSPSSLSASVGDRVTITCRASQSVDFDGFSFLHWYQQKPGKAPKLLIYDASSLESGVPSRFSGSGSGTDFTLTISSLQPEDFATYYCQQRDSWPYTFGQGTKVEIKR
notes: Fab from E. coli; also called Fab hit of TY21689
Kd [1]: 0.105 µM

B5: TY23286 (antibody, V domains shown)
VH: EVQLVESGGGLVQPGGSLRLSCAASGYSISSGYHWSWIRQAPGKGLEWLARIDWDDDKYYSTSLKSRLTISRDNSKNTLYLQLNSLRAEDTAVYYCARSYVYFDYWGQGTLVTVSS
VL: DIQLTQSPSSLSASVGDRVTITCRASQSVRGRFLAWYQQKPGKAPKLLIYDASNRATGIPSRFSGSGSGTDFTLTISSLQPEDFATYYCQQSSSWPPTFGQGTKVEIKR
EC50 [6]: 1.5 µM

B6: TY23289 (antibody, V domains shown)
VH: EVQLVESGGGLVQPGGSLRLSCAASGYSISSGYHWSWIRQAPGKGLEWLARIDWDDDKYYSTSLKSRLTISRDNSKNTLYLQLNSLRAEDTAVYYCARSYVYFDYWGQGTLVTVSS
VL: DIQLTQSPSSLSASVGDRVTITCRASQSVRGRFLAWYQQKPGKAPKLLIYDASNRATGIPSRFSGSGSGTDFTLTISSLQPEDFATYYCQQSSSWPPTFGQGTKVEIKR
EC50 [6]: 0.133 µM

B7: TY23291 (antibody, V domains shown)
VH: EVQLVESGGGLVQPGGSLRLSCAASGYSISSGYHWSWIRQAPGKGLEWLARIDWDDDKYYSTSLKSRLTISRDNSKNTLYLQLNSLRAEDTAVYYCARSYVYFDYWGQGTLVTVSS
VL: DIQLTQSPSSLSASVGDRVTITCRASQSVRGRFLAWYQQKPGKAPKLLIYDASNRATGIPSRFSGSGSGTDFTLTISSLQPEDFATYYCQQSSSWPPTFGQGTKVEIKR
EC50 [6]: 3.66 µM

B8: TY23280 (antibody, V domains shown)
VH: EVQLVESGGGLVQPGGSLRLSCAASGYSISSGYHWSWIRQAPGKGLEWLARIDWDDDKYYSTSLKSRLTISRDNSKNTLYLQLNSLRAEDTAVYYCARSYVYFDYWGQGTLVTVSS
VL: DIQLTQSPSSLSASVGDRVTITCRASQSVRGRFLAWYQQKPGKAPKLLIYDASNRATGIPSRFSGSGSGTDFTLTISSLQPEDFATYYCQQSSSWPPTFGQGTKVEIKR
EC50 [6]: 2.95 µM

B9: B15716 (Fab, V domains shown)
VH: EVQLVESGGGLVQPGGSLRLSCAASGYSITSGYYWAWIRQAPGKGLEWVSSISGSGSTTYYADSVKGRFTISRDNSKNTLYLQLNSLRAEDTAVYYCARDGFGYFDYWGQGTLVTVSS
VL: DIQLTQSPSSLSASVGDRVTITCSASSSVSYVYWYQQKPGKAPKLLIYDASSLESGVPSRFSGSGSGTDFTLTISSLQPEDFATYYCVQGLQTPWTFGQGTKVEIKR
notes: Fab from E. coli; also called Fab hit of TY21586
Kd [1]: 0.0121 µM

B10: TY21692 (antibody, V domains shown)
VH: EVQLVESGGGLVQPGGSLRLSCAASGYSITSGHYWSWIRQAPGKGLEWIGDISHSGSTYYSQSLKSRVTISRDNSKNTLYLQLNSLRAEDTAVYYCARGSRTGYFDYWGQGTLVTVSS
VL: DIQLTQSPSSLSASVGDRVTITCRASQSISSYLNWYQQKPGKAPKLLIYDASNLETGVPSRFSGSGSGTDFTLTISSLQPEDFATYYCQHHYGTPLTFGQGTKVEIKR
notes: human IgG1 (hIgG1) from Fab hit B16083
Kd [7]: 0.00276 µM | Kd [8]: 0.00395 µM | Kd [9]: 0.00112 µM
